Source: PMC7566454, “Sorcin is an early marker of neurodegeneration, Ca^2+ dysregulation and endoplasmic reticulum stress associated to neurodegenerative diseases” (Cell Death & Disease, 2020)

How the values were obtained:
human Sorcin [1] = biological target: T1, human Sorcin (human, UniProt P30626 1-198); test: SPR; FastStep (SensiQ Pioneer); human Sorcin amine-coupled to a COOH5 chip (2000 RU); peptides 1.56-100 μM; 20 mM Hepes pH 7.4, 150 mM NaCl, 0.005% P20, 100 μM CaCl2; best fits with 2 sites
T1 construct: Sorcin, human
T1 sequence (looked up): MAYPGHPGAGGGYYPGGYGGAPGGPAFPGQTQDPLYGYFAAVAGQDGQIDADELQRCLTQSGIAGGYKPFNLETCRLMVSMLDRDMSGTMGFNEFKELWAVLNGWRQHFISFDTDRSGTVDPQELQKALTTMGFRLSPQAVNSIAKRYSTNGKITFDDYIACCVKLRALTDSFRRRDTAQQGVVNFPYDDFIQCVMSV

human Sorcin [2] = biological target: T1, human Sorcin; test: SPR; OneStep (SensiQ Pioneer); GST-Sigma-1 receptor (1-138) amine-coupled to a COOH5 chip (125 RU), signal on GST (80 RU) subtracted; Sorcin up to 5 μM; 20 mM Hepes pH 7.4, 150 mM NaCl, 0.005% P20 with CaCl2 (500 μM in the results, 100 μM in the methods); fit with 1 site; conditions: both partners purified
human Sorcin [3] = biological target: T1, human Sorcin; test: SPR; OneStep as a6 but in buffer with 1 mM EDTA (HBS-PE); conditions: both partners purified

## RyR2 peptide corresponding to calmodulin-binding site CaMBD2
Human Sorcin [1]
  Kd: 120 nM

B1: GST-Sigma-1 receptor (cytosolic domain, residues 1-138) (domain or fragment, UniProt Q99720 1-138, looked up)
chain: MQWAVGRRWAWAALLLAVAAVLTQVVWLWLGTQSFVFQREEIAQLARQYAGLDHELAFSRLIVELRRLHPGHVLPDEELQWVFVNAGGWMGAMCLLHASLSEYVLLFGTALGSRGHSGRYWAEISDTIISGTFHQWRE
notes: Sigma-1 receptor, 'cytosolic domain' residues 1-138, cloned in frame with GST in pGEX4T1; pGEX4T1 puts GST at the N-terminus (surmised); also called Sigma-1 receptor (1–138); source: E. coli BL21(DE3), purified (GSTrap HP)
Human Sorcin [2]
  Kd: 720 nM
Human Sorcin [3]
  Kd: 12000 nM

B2: RyR2 peptide corresponding to calmodulin-binding site CaMBD3 (peptide)
peptide: ALRYNVLTLVRMLSLKSLKKQMKRMKKMTVK
notes: source: synthetic peptide (Biomatik, purity > 90%)
Human Sorcin [1]; both partners purified
  Kd: 480 nM

B3: RyR2 peptide corresponding to calmodulin-binding site CaMBD1 (peptide)
peptide: FRYNEVMQALNMSAALTARKTREFR
notes: as for B2
Human Sorcin [1]; both partners purified
  Kd: > 10000 nM
